According to IntAct's records for PubMed 19515790:

B1: Protein root UVB sensitive 1, chloroplastic (Arabidopsis thaliana (Mouse-ear cress)), Q7X6P3 (parent)
chain: MSCSYLLSGDASVVASRRWSDVSSRQRLFLPRQSLRQPSGSSFSRCVRLVANVNDHFSKQSLATRNCLASVFSADLGGSNGNNDNGNGGGGGGDGGGDNSDDSSFDLRYLCFLLLGLSCFFHFRLSAASAIAKDQNSDSNGDAVKETVWEVRGSKRKRLVPDFVKDEFVSEESAFELSSSLTPENLLAQCRNLLTQFLLPEGFPNSVTSDYLDYSLWRGVQGIASQISGVLATQSLLYAVGLGKGAIPTAAAINWVLKDGIGYLSKIMLSKYGRHFDVHPKGWRLFADLLENAAFGMEMLTPVFPQFFVMIGAAAGAGRSAAALIQAATRSCFNAGFASQRNFAEVIAKGEAQGMVSKSVGILLGIVVANCIGTSTSLALAAFGVVTTIHMYTNLKSYQCIQLRTLNPYRASLVFSEYLISGQAPLIKEVNDEEPLFPTVRFSNMKSPEKLQDFVLSSEAKAAAADIEERLQLGSKLSDVIHNKEEAIALFDLYRNEGYILTEHKGRFCVMLKESSTPQDMLRSLFQVNYLYWLEKNAGIEPASTYSDCKPGGRLHISLDYVRREFEHAKEDSESVGWVTEGLIARPLPTRIRLGHDRELLLSSPNSS
partner: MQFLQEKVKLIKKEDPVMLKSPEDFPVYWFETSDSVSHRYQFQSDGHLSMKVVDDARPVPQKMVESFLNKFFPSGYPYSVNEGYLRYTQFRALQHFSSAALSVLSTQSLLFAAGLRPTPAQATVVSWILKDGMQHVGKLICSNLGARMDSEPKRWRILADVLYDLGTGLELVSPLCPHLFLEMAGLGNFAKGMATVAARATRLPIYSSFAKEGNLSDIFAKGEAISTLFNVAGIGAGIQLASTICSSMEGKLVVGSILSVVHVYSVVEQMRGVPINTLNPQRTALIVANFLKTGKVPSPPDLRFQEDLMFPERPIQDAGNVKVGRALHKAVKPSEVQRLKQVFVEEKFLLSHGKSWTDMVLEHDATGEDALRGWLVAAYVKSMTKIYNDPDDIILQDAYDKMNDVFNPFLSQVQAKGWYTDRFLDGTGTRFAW

Variants of: B1
Settings: with rus2_arath RUS2, Q9SJX7

Variant	effect of a mutation on the interaction
K281G	disrupting interaction
K349G	disrupting interaction

More lines, now with the values ahead:

effect of a mutation on the interaction	Variant
decreasing interaction	E298G
decreasing interaction	N342G
